Measurements published in patent publication US20090035321A1, “Intercellular adhesion molecules and their binding ligands” (Boehringer Ingelheim Pharmaceuticals, Inc., published 2009).

Columns and labels:
[1] = target: Lymphocyte Function-associated Antigen-1 (LFA-1), on cells (human) (UniProt P20701)
[2] = target: ICAM-1 A115N/SV (printed A155N/SV at paragraph 410) (human) (UniProt P05362); assay: 35S-HRV14 on COS cells
[3] = target: ICAM-1 N269QSQI/IQAEQ (human) (UniProt P05362); assay: 35S-HRV14 on COS cells
ICAM-1 S5/T (human) = ICAM-1 S5/T (human) (UniProt P05362); assay: 35S-HRV14 on COS cells
[4] = target: Intercellular Adhesion Molecule-1 (ICAM-1), wild type, on the cell surface (human) (UniProt P05362)
ICAM-1 Y476/TAG (human) = ICAM-1 Y476/TAG (human) (UniProt P05362)
[5] = target: Intercellular Adhesion Molecule-1 (ICAM-1), wild type, on the cell surface (human) (UniProt P05362); remark: listed apart in the source
purified ICAM-1 (human) = purified ICAM-1 (human) (UniProt P05362)
[6] = target: Lymphocyte Function-associated Antigen-1 (LFA-1), on cells (human) (UniProt P20701); remark: listed apart in the source

anti-LFA-1 monoclonal antibody TS1/18
binding of JY cells to ICAM-1 in plastic-bound vesicles [1]: 96 % inhibition

human rhinovirus 14 (HRV14) (from UniProt P03303)
HRV Binding % (% of wild type) [2]: 12 | HRV Binding % (% of wild type) [3]: 108 | HRV Binding % (% of wild type) (ICAM-1 S5/T (human)): 125

monoclonal antibody RR1/1
% inhibition of PMA-stimulated PHA-lymphoblast aggregation [4]: 51 % inhibition | % of cells expressing ICAM-1 that bind LFA-1 in the presence of RR1/1 (ICAM-1 Y476/TAG (human)): 0% | % of cells expressing ICAM-1 that bind LFA-1 in the presence of RR1/1 [5]: 0% | binding of JY cells to ICAM-1 in plastic-bound vesicles (purified ICAM-1 (human)): 97 % inhibition

anti-LFA-1 antibody R3.1
% inhibition of the mixed lymphocyte reaction [6]: 93 % inhibition
